Results published in publication doi:10.1101/2023.09.21.558905.

T1: GUN1 (132-918) (Arabidopsis thaliana, UniProt Q9SIC9 132-918)
T1 sequence: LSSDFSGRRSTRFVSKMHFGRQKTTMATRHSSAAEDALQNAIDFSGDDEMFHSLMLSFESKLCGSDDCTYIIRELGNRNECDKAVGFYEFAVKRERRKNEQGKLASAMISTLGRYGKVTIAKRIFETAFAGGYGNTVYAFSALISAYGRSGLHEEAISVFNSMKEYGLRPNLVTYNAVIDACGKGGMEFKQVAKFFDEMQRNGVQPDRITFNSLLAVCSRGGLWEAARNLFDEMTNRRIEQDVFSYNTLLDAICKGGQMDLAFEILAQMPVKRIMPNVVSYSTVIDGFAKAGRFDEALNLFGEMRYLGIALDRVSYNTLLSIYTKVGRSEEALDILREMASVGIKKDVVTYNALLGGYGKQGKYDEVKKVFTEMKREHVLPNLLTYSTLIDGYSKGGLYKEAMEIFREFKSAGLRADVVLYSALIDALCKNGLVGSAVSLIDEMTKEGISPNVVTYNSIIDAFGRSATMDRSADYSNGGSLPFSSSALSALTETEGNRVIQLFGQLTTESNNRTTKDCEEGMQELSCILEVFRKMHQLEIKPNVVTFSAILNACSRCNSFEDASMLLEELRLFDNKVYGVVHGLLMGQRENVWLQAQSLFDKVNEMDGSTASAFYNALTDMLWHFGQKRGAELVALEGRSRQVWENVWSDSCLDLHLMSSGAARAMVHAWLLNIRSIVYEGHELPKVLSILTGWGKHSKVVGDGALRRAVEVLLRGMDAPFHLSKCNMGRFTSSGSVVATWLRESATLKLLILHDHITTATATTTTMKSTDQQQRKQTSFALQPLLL


Target: T1, GUN1 (132-918)
Test: EMSA

| Binder | binding result |
| --- | --- |
| GGACCUCCUUCUCUAUCUCU (ssRNA) [RNA2] | no binding |
| GGAAAUCCGUCGAUAUCUCU (ssRNA) [RNA1 (psbD BLRP 5'-UTR)] | binds |
| GGACCGAAUGAUCUAUCUCU (ssRNA) [RNA3] | no binding |
